Laboratory results published in the supplement of paper PMC6379048.

Experiments:
Assay in all cases: EC50 of free RNA motif oligo competing protein binding to immobilised probe
U2AF2 = U2AF2 (UniProt P26368)
Procedure, shortened: (§1)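 HEK293-FT lysate (2.5 mg protein/well) was treated with free RNA oligos (0 nM to 30 μM) for 1 h at 4°C, then with the same oligos on NHS-Sepharose beads for 30 min at 4°C. Bound proteins were quantified by label-free LC-MS/MS relative to the control. EC50 came from a four-parameter log-logistic fit, and Kd is EC50 times a protein-dependent depletion factor.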

UPF1 = biological target: T1, UPF1 (UniProt Q92900)
T1 sequence: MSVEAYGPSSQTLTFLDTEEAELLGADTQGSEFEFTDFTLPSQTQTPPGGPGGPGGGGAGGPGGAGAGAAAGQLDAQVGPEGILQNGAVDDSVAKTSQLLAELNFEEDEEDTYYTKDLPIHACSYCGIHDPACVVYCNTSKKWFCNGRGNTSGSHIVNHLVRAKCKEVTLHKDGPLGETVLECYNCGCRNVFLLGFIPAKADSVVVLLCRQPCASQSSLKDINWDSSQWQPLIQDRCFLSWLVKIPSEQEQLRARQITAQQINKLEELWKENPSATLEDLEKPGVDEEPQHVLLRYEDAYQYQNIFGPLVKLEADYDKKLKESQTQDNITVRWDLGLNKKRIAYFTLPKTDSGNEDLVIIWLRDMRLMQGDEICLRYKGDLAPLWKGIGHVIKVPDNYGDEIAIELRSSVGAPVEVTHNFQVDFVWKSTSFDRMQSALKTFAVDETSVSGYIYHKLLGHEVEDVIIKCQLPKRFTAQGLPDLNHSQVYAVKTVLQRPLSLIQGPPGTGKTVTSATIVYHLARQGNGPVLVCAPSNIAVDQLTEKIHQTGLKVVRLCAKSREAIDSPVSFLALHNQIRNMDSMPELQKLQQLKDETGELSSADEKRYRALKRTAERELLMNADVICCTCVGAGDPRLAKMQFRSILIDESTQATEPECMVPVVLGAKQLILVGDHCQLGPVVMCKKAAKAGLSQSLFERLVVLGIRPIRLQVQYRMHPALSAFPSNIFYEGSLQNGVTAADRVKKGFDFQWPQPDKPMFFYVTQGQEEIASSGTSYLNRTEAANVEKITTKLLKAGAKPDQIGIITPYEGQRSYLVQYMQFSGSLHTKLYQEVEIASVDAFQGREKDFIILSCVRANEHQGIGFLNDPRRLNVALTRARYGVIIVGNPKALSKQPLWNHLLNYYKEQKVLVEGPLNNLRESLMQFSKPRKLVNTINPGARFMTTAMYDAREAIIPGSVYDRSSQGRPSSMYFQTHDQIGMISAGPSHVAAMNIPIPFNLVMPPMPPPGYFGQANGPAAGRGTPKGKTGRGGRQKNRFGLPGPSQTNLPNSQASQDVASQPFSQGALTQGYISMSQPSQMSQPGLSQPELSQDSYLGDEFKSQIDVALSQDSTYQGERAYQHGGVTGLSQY
Procedure, shortened: as §1

TSNAX = biological target: T2, TSNAX (UniProt Q99598)
T2 sequence: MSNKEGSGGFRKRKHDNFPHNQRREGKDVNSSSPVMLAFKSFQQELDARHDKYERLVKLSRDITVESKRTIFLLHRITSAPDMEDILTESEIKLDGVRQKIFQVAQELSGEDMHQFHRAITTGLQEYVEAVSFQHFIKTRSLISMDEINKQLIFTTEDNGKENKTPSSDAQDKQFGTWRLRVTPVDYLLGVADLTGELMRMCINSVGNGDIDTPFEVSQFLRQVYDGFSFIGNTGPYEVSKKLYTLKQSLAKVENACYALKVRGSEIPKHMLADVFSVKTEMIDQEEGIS
Procedure, shortened: as §1

RPS14 = RPS14 (UniProt P62263)
Procedure, shortened: as §1

IGF2BP1 = IGF2BP1 (UniProt Q9NZI8)
Procedure, shortened: as §1

PPIE = PPIE (UniProt Q9UNP9)
Procedure, shortened: as §1

RBM38 = biological target: T3, RBM38 (UniProt Q9H0Z9)
T3 sequence: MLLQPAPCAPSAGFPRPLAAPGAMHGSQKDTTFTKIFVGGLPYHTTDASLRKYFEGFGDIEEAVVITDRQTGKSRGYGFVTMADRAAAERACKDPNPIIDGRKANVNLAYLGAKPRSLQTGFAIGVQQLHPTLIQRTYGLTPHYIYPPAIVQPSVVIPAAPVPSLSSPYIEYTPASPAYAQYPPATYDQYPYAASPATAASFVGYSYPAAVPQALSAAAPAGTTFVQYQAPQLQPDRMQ
Procedure, shortened: as §1

CDKN2AIP = biological target: T4, CDKN2AIP (UniProt Q9NXV6)
T4 sequence: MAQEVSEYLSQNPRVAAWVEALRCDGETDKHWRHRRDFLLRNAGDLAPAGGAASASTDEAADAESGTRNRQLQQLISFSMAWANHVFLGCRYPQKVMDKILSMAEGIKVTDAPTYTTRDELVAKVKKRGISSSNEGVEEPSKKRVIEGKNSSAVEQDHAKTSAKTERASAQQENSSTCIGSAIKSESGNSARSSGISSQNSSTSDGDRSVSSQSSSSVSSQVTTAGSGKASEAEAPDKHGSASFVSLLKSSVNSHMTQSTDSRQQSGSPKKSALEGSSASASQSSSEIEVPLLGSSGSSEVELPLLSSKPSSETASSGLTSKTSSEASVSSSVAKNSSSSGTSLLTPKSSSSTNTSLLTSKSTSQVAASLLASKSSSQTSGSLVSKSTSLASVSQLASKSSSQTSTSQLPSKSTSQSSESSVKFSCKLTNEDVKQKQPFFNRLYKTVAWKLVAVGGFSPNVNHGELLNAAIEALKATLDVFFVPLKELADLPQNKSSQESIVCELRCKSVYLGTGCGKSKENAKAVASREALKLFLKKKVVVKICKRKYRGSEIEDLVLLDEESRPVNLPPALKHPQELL
Procedure, shortened: as §1

MRPS22 = MRPS22 (UniProt P82650)
Procedure, shortened: as §1

Chain of U2AF2 (P26368 whole entry): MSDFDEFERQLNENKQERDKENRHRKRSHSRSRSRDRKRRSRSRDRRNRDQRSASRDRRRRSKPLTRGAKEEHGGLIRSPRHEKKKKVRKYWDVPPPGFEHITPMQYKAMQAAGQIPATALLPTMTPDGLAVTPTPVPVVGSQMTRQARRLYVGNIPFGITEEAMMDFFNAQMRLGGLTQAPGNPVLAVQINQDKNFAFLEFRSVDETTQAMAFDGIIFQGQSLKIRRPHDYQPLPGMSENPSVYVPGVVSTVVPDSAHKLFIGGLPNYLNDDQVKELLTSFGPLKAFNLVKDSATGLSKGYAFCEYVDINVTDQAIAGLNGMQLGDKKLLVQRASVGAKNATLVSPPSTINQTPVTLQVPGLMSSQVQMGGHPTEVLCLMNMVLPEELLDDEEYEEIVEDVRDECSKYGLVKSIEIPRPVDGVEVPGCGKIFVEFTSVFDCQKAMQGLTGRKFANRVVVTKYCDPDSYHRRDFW
Chain of PPIE (Q9UNP9 whole entry): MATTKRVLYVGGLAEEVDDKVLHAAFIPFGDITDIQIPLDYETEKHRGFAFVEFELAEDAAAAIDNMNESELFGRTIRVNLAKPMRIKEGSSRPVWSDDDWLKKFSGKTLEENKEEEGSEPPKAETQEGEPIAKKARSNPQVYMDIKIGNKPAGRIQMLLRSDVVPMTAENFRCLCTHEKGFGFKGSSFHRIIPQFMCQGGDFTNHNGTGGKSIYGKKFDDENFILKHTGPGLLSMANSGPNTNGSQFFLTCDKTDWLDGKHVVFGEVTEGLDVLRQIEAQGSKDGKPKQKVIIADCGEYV
Chain of IGF2BP1 (Q9NZI8 whole entry): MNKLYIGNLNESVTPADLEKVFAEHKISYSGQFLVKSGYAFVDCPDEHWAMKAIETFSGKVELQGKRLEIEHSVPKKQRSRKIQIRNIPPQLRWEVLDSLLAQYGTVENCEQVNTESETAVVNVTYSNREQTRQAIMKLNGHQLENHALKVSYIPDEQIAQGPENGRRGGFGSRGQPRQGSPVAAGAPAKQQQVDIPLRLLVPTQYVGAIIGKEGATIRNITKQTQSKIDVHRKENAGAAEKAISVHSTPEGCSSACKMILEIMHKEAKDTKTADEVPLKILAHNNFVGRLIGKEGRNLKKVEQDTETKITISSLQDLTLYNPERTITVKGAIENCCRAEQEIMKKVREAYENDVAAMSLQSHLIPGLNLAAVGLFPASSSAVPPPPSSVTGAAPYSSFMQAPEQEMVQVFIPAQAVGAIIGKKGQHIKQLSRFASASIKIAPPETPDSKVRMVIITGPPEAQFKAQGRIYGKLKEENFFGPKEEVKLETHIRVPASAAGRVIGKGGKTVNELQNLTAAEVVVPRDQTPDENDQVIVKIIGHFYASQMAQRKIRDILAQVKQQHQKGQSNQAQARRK

AAUAAA
EC50 (U2AF2): 1010 nM
EC50 (UPF1): 4900 nM
EC50 (TSNAX): 30.5 nM

CUGUCCU
EC50 (RPS14): 180 nM
EC50 (IGF2BP1): 3740 nM

UAUUUAU
EC50 (PPIE): 300 nM
EC50 (RBM38): 2910 nM
EC50 (CDKN2AIP): 419 nM
EC50 (MRPS22): 85.6 nM
